Reference: publication PMC9785812 (Pharmaceutics, 2022)
Read-outs that look alike come from different tables or passages of the source.

Columns and labels:
CA20948 cells = test: MTS viability assay; format: cell-based, rat; settings: 4 h treatment, MTS after 4 days, relative to untreated cells, mean ± SD
Procedure: Rat pancreatic cancer cell line CA20948 was used given the somatostatin receptor 2 (SSTR2) overexpression as it is found in many human neuroendocrine tumors. Cells were grown in DMEM High Glucose and Pyruvate medium (Gibco 41966029) supplemented with 10% fetal bovine serum (Gibco 10270106) and 100 U/mL penicillin-streptomycin (Sigma-Aldrich P4333) and were maintained in a humidified incubator at 37 °C with 5% CO2 supply. All in vitro results were obtained from a minimum of three replicates per condition.
A total of 10,000 cells were seeded per well into a 96-well plate (31,250 cells/cm²). […] After 4 h incubation at 37 °C in 5% CO2, cells were washed and new medium was added. Then, after 4 days, MTS reagent was prepared according to the manufacturer’s instructions and added to the cells. Absorbance was measured at 490 nm using the BioTek Synergy H1 reader (Agilent). Cell viability was obtained as the ratio of the absorbance of a sample well to the average absorbance of untreated (0 MBq/mL) wells, after subtraction of the background signal of wells containing MTS reagent without cells. Statistical significance (p < 0.05) was determined using linear models.

[1] = Shelf life in radiolabeling buffer at room temperature (iTLC); format: physicochemical; settings: radiolabeling buffer (0.15 M NaOAc, pH 4.7), up to 7 days, iTLC-SG, gamma counter
Procedure: (§1) Radiolabeling was performed by adding up to 200 MBq of the ^153Sm radiolabeling solution to 20 nmol of the DOTA-TATE precursor dissolved in 0.15 M NaOAc buffer (pH 4.7) in a total reaction volume of 1 mL. The reaction vial was placed in a Thermomixer C (Eppendorf) to stir (500 rpm) and the mixture was heated to 95 °C for 15 min. After incubation, the radiolabeling yield was evaluated using thin-layer chromatography. An amount of 1–2 µL of the reaction mixture was spotted on a glass microfiber chromatography paper strip impregnated with silica gel (iTLC-SG, Agilent Technologies, Diegem, Belgium) that was eluted with a 0.5 M citrate solution (pH 5.5). After elution, the TLC papers were cut in half and the activity of the bottom and top part of the TLC paper was counted for 2 min each using an automated gamma counter.
(§2) After 1 h, 3 days, 5 days and 7 days, a 5 µL sample was spotted on the TLC system described above to identify the intact fraction.

[2] = Stability test in PBS (iTLC); format: physicochemical; settings: 37 °C, up to 7 days, ~5 MBq in 250 µL added to 4.75 mL, iTLC-SG, 0.5 M citrate pH 5.5, gamma counter
Procedure: as §1, §2

[3] = Ex vivo biodistribution in CA20948 xenograft mice; settings: mouse, iv
Procedure: Quantification of activity was performed with an automated gamma counter equipped with a 3-in NaI(Tl) detector coupled to a multichannel analyzer (2480 Wizard^2, Perkin Elmer, Zaventem, Belgium). The results were corrected for background signal, physical decay during counting and detector dead time.
Male NMRI nude mice (between 8 and 15 weeks old) were anesthetized with 2.5% isoflurane in O2 at a flow rate of 0.2 L min^−1 and subcutaneously injected on the right shoulder with 1 × 10^6 CA20948 cells resuspended in PBS with 30% matrigel®. Tumor dimensions were measured two or three times per week and volume was calculated as length × width × height. Mice were sacrificed if the tumor volume exceeded 600 mm^3 or if more than 10% of the original body weight was lost.
Additionally, similar biodistribution studies were performed with free (unlabeled) [^153Sm]SmCl3 to identify the organs with ^153Sm accumulation in case of release from the complex. […] The mice were sacrificed by an overdose pentobarbital (200 µL of 60 mg/mL) 1, 4, 24 and 72 h post-injection (p.i.) (n = 3–4 per time point). Blood was collected via cardiac puncture. Organs of interest were collected in tared tubes and weighed. The activity in the different organs was measured in the gamma counter. For the calculation of the total activity in the blood, bone and muscle, the masses were assumed to be, respectively, 7, 12 and 40% of the total body mass. Data were expressed as a percentage of injected activity (%IA) and standardized uptake value (SUV). %IA was calculated as (counts per min (cpm) in organ)/(IA converted to cpm) × 100. SUV was calculated as (activity in cpm in organ/weight of organ in g)/(IA/total body weight in g).

[4] = male, NMRI nude, bone, total radioactivity, read-out: Bone SUV
[5] = male, NMRI nude, in vivo, total radioactivity, read-out: Excreted %IA
[6] = male, NMRI nude, intestines, total radioactivity, read-out: Intestines %IA
[7] = male, NMRI nude, kidneys, total radioactivity, read-out: Kidneys %IA
[8] = male, NMRI nude, liver, total radioactivity, read-out: Liver %IA
[9] = male, NMRI nude, muscle, total radioactivity, read-out: Muscle %IA
[10] = male, NMRI nude, pancreas, total radioactivity, read-out: Pancreas %IA
[11] = male, NMRI nude, pancreas, total radioactivity, read-out: Pancreas SUV
[12] = male, NMRI nude, spleen, total radioactivity, read-out: Spleen SUV
[13] = male, NMRI nude, stomach, total radioactivity, read-out: Stomach %IA
[14] = male, NMRI nude, tumor, total radioactivity, read-out: Tumor %IA

In the case of C[C@@H](O)[C@H](NC(=O)[C@@H]1CSSC[C@H](NC(=O)[C@@H](Cc2ccccc2)NC(=O)CN2CCN(CC(=O)O)CCN(CC(=O)O)CCN(CC(=O)O)CC2)C(=O)N[C@@H](Cc2ccc(O)cc2)C(=O)N[C@H](Cc2c[nH]c3ccccc23)C(=O)N[C@@H](CCCCN)C(=O)N[C@@H]([C@@H](C)O)C(=O)N1)C(=O)O [[^153Sm]Sm-DOTA-TATE, metal not drawn], the cell viability (CA20948 cells; 1.25 MBq/mL) is reported as “significantly lowered viability”, the “cell viability, reduced down to” value (CA20948 cells; lowest viability over 0-10 MBq/mL) is reported as 48 ± 6% and the “radiochemical purity (intact fraction)” value [1] is reported as over 98%. The “radiochemical purity (intact fraction)” value [2] was over 99%, the time without leaching of 153Sm from the chelator was over 7 days and the SUV at 1 h ([3]; male, NMRI nude, blood, total radioactivity, read-out: Blood SUV) was 0.1 SUV. For the same compound, the tissue uptake dose at 4 h ([3]; male, NMRI nude, bone, total radioactivity, read-out: Bone %IA) was 0.5 ± 0.1 %ID, the SUV at 1 h [3, 4] was 0.1 SUV and the SUV at 4 h [3, 4] was 0.1 SUV. The tissue uptake dose at 1 h [3, 5] was 80 ± 4.4 %ID, the tissue uptake dose at 4 h [3, 5] was 83 ± 3.5 %ID and the tissue uptake dose at 24 h [3, 5] was 94.1 ± 3.6 %ID. It also gave a tissue uptake dose at 72 h [3, 5] of 96.6 ± 1.7 %ID, a tissue uptake dose at 4 h [3, 6] of 4.4 ± 1.5 %ID and a tissue uptake dose at 72 h [3, 6] of 0.1 %ID. For the same compound, the SUV at 72 h ([3]; male, NMRI nude, kidneys, total radioactivity) was 0.1 SUV, the tissue uptake dose at 4 h [3, 7] was 2.4 ± 0.6 %ID and the tissue uptake dose at 72 h [3, 7] was 0.1 %ID. For the same compound, the SUV at 24 h ([3]; male, NMRI nude, kidneys, total radioactivity, read-out: Kidneys SUV) was 0.3 ± 0.1 SUV, the tissue uptake dose at 1 h [3, 8] was 0.4 ± 0.1 %ID and the tissue uptake dose at 24 h [3, 8] was 0.1 %ID. The SUV at 1 h ([3]; male, NMRI nude, liver, total radioactivity, read-out: Liver SUV) was 0.1 SUV, the tissue uptake dose at 1 h ([3]; male, NMRI nude, lungs, total radioactivity, read-out: Lungs %IA) was 0.1 %ID and the SUV at 1 h ([3]; male, NMRI nude, lungs, total radioactivity, read-out: Lungs SUV) was 0.1 SUV. It also gave a tissue uptake dose at 1 h [3, 9] of 1 ± 0.4 %ID, a tissue uptake dose at 24 h [3, 9] of 0.1 %ID and an SUV at 4 h ([3]; male, NMRI nude, muscle, total radioactivity, read-out: Muscle SUV) of 0.1 SUV. It also gave a tissue uptake dose at 1 h [3, 10] of 1 ± 0.1 %ID, a tissue uptake dose at 4 h [3, 10] of 0.4 ± 0.3 %ID and a tissue uptake dose at 24 h [3, 10] of 0.1 %ID. The SUV at 4 h [3, 11] was 0.6 ± 0.4 SUV, the SUV at 24 h [3, 11] was 0.1 SUV and the SUV at 1 h [3, 12] was 0.1 SUV. The SUV at 4 h [3, 12] was 0.1 SUV, the tissue uptake dose at 1 h [3, 13] was 0.7 ± 0.1 %ID and the tissue uptake dose at 4 h [3, 13] was 1 ± 0.3 %ID. It also gave a tissue uptake dose at 72 h [3, 13] of 0.1 %ID, a tissue uptake dose at 4 h [3, 14] of 6.1 ± 3.7 %ID and a tissue uptake dose at 24 h [3, 14] of 3.2 ± 2.9 %ID. It also gave a tissue uptake dose at 72 h [3, 14] of 2.2 ± 1.6 %ID, an SUV at 4 h ([3]; male, NMRI nude, tumor, total radioactivity, read-out: Tumor SUV) of 4.4 ± 1.1 SUV and a tissue uptake dose at 4 h ([3]; male, NMRI nude, whole blood, total radioactivity, read-out: Blood %IA) of 0.1 %ID. For the same compound, the tissue uptake dose at 24 h ([3]; bone, total radioactivity, 24 h p.i., CA20948 tumor bearing male NMRI-nude mice, ~2-3 MBq i.v., mean ± SD, n = 3-4, read-out: Bone %IA) was 0.2 ± 0.1 %ID, the tissue uptake dose at 72 h ([3]; bone, total radioactivity, 72 h p.i., CA20948 tumor bearing male NMRI-nude mice, ~2-3 MBq i.v., mean ± SD, n = 3-4, read-out: Bone %IA) was 0.2 %ID and the “Blood %IA” value ([3]; in vivo) was 0.0 ± 0.0 %IA. The “Blood SUV” value ([3]; in vivo) was 0.0 ± 0.0, the “Bone %IA” value ([3]; in vivo) was 0.4 ± 0.0 %IA and the “Bone SUV” value ([3]; in vivo) was 0.0 ± 0.0. The “Brain %IA” value ([3]; in vivo) was 0.0 ± 0.0 %IA, the “Brain SUV” value ([3]; in vivo) was 0.0 ± 0.0 and the “Heart %IA” value ([3]; in vivo) was 0.0 ± 0.0 %IA. The “Heart SUV” value ([3]; in vivo) was 0.0 ± 0.0, the “Liver SUV” value ([3]; in vivo) was 0.0 ± 0.0 and the “Lungs %IA” value ([3]; in vivo) was 0.0 ± 0.0 %IA. For the same compound, the “Lungs SUV” value ([3]; in vivo) was 0.0 ± 0.0, the “Muscle %IA” value ([3]; in vivo) was 0.0 ± 0.0 %IA and the “Muscle SUV” value ([3]; in vivo) was 0.0 ± 0.0. The “Pancreas %IA” value ([3]; in vivo) was 0.0 ± 0.0 %IA, the “Pancreas SUV” value ([3]; in vivo) was 0.0 ± 0.0 and the “Spleen %IA” value ([3]; in vivo) was 0.0 ± 0.0 %IA. The “Spleen SUV” value ([3]; in vivo) was 0.0 ± 0.0, the tissue uptake dose at 1 h ([3]; intestines, total radioactivity, 1 h p.i., CA20948 tumor bearing male NMRI-nude mice, ~2-3 MBq i.v., mean ± SD, n = 3-4, read-out: Intestines %IA) was 2 ± 0.3 %ID and the tissue uptake dose at 24 h ([3]; intestines, total radioactivity, 24 h p.i., CA20948 tumor bearing male NMRI-nude mice, ~2-3 MBq i.v., mean ± SD, n = 3-4, read-out: Intestines %IA) was 0.6 ± 0.2 %ID. The tissue uptake dose at 1 h ([3]; total radioactivity, 1 h p.i., CA20948 tumor bearing male NMRI-nude mice, ~2-3 MBq i.v., mean ± SD, n = 3-4, read-out: Tumor %IA) was 3.7 ± 2 %ID, the tissue uptake dose at 24 h ([3]; kidneys, total radioactivity, 24 h p.i., CA20948 tumor bearing male NMRI-nude mice, ~2-3 MBq i.v., mean ± SD, n = 3-4, read-out: Kidneys %IA) was 0.5 ± 0.2 %ID and the tissue uptake dose at 4 h ([3]; liver, total radioactivity, 4 h p.i., CA20948 tumor bearing male NMRI-nude mice, ~2-3 MBq i.v., mean ± SD, n = 3-4, read-out: Liver %IA) was 0.2 %ID. For the same compound, the tissue uptake dose at 72 h ([3]; liver, total radioactivity, 72 h p.i., CA20948 tumor bearing male NMRI-nude mice, ~2-3 MBq i.v., mean ± SD, n = 3-4, read-out: Liver %IA) was 0.2 %ID, the SUV at 1 h ([3]; muscle, total radioactivity, 1 h p.i., CA20948 tumor bearing male NMRI-nude mice, ~2-3 MBq i.v., mean ± SD, n = 3-4, read-out: Muscle SUV) was 0.2 ± 0.1 SUV and the tissue uptake dose at 4 h ([3]; muscle, total radioactivity, 4 h p.i., CA20948 tumor bearing male NMRI-nude mice, ~2-3 MBq i.v., mean ± SD, n = 3-4, read-out: Muscle %IA) was 0.4 ± 0.2 %ID. For the same compound, the SUV at 1 h ([3]; pancreas, total radioactivity, 1 h p.i., CA20948 tumor bearing male NMRI-nude mice, ~2-3 MBq i.v., mean ± SD, n = 3-4, read-out: Pancreas SUV) was 1.2 ± 0.2 SUV, the tissue uptake dose at 24 h ([3]; stomach, total radioactivity, 24 h p.i., CA20948 tumor bearing male NMRI-nude mice, ~2-3 MBq i.v., mean ± SD, n = 3-4, read-out: Stomach %IA) was 0.3 ± 0.2 %ID and the tissue uptake dose at 1 h ([3]; whole blood, total radioactivity, 1 h p.i., CA20948 tumor bearing male NMRI-nude mice, ~2-3 MBq i.v., mean ± SD, n = 3-4, read-out: Blood %IA) was 0.7 ± 0.2 %ID.
